In article PMC5040961:

Biological target: T1, FLAG-tagged Lgl1 (Lethal giant larvae 1), Q80Y17
T1 chain: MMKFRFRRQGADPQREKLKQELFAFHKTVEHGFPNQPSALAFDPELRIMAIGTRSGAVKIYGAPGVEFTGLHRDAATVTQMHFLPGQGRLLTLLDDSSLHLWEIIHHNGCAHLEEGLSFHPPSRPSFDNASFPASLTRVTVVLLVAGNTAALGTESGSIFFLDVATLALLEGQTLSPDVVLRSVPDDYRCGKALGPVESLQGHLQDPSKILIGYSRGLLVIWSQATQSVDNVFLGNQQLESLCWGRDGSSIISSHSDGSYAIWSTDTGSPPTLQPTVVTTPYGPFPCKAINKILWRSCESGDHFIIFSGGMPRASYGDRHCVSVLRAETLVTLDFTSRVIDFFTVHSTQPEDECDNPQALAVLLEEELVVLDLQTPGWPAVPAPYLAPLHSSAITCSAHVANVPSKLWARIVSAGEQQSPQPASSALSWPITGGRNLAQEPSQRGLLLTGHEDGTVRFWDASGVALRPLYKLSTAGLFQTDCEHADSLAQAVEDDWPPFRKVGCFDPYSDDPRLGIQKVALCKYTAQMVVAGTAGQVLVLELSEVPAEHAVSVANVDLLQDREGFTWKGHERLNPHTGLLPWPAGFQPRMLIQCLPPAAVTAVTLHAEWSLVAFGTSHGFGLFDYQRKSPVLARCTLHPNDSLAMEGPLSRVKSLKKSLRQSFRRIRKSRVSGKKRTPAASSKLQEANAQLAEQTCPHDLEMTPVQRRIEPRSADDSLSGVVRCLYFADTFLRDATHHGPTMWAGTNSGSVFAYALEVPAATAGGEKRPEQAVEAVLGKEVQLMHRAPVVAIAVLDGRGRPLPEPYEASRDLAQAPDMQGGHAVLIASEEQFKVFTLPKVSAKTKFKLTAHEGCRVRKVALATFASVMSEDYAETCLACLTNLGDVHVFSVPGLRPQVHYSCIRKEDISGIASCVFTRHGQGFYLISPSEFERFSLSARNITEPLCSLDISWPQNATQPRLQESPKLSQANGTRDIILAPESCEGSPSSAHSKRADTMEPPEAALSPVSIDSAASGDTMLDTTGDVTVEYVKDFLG
Test: co-immunoprecipitation (FLAG IP, western blot with HA and FLAG antibodies, quantified)
Details: chain shown with the change; HEK293T cell lysates; n = 3; parent: est. 1.0; read off a plot

B1: HA-PKCζ-wt, Q05513 K225R; K284R; K378R (protein)
chain: MPSRTGPKMEGSGGRVRLKAHYGGDIFITSVDAATTFEELCEEVRDMCRLHQQHPLTLKWVDSEGDPCTVSSQMELEEAFRLARQCRDEGLIIHVFPSTPEQPGLPCPGEDKSIYRRGARRWRKLYRANGHLFQAKRFNRRAYCGQCSERIWGLARQGYRCINCKLLVHKRCHGLVPLTCRKHMDSVMPSQEPPVDDKNEDADLPSEETDGIAYISSSRKHDSIRDDSEDLKPVIDGMDGIKISQGLGLQDFDLIRVIGRGSYAKVLLVRLKKNDQIYAMKVVRKELVHDDEDIDWVQTEKHVFEQASSNPFLVGLHSCFQTTSRLFLVIEYVNGGDLMFHMQRQRKLPEEHARFYAAEICIALNFLHERGIIYRDLRLDNVLLDADGHIKLTDYGMCKEGLGPGDTTSTFCGTPNYIAPEILRGEEYGFSVDWWALGVLMFEMMAGRSPFDIITDNPDMNTEDYLFQVILEKPIRIPRFLSVKASHVLKGFLNKDPKERLGCRPQTGFSDIKSHAFFRSIDWDLLEKKQALPPFQPQITDDYGLDNFDTQFTSEPVQLTPDDEDAIKRIDQSEFEGFEYINPLLLSTEESV
  ratio to parent: 2.4
